Source: publication PMC3843637 (Science signaling, 2013)
“And” between values parts separate entries of the source, which are not always exact repeats. Identical values can stand only once.

T1: PPM1A (human, UniProt P35813 1-382)
T1 sequence (looked up): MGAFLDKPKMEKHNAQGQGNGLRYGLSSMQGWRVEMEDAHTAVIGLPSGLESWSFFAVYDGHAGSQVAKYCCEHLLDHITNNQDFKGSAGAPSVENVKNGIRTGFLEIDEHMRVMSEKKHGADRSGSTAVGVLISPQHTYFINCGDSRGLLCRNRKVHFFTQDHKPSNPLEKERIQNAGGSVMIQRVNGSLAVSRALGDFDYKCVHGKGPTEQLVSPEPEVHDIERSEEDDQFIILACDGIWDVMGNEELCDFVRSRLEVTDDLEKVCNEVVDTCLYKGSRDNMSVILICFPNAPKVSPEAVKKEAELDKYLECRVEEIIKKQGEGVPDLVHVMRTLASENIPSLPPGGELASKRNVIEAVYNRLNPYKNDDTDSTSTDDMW

B1: MAN1 fragment from amino acids 755 to 911 (MAN1Luhm) (domain or fragment, human, UniProt Q9Y2U8 755-911, looked up)
chain: DKILVIPSKVWQGQAFHLDRRNSPPNSLTPCLKIRNMFDPVMEIGDQWHLAIQEAILEKCSDNDGIVHIAVDKNSREGCVYVKCLSPEYAGKAFKALHGSWFDGKLVTVKYLRLDRYHHRFPQALTSNTPLKPSNKHMNSMSHLRLRTGLTNSQGSS
B2: S2LMH2EEE Y366A-W368A (domain or fragment)
chain: not shown

How the values were obtained:
PPM1A = molecular target: T1, PPM1A; experiment: NMR titration
[1] = molecular target: S2LMH2EEE/S4LMH2 heterotrimer (human, UniProt Q15796 186-467; Q13485 273-552, SSMS to EEME); experiment: ITC
S2LMH2EEE Y366A-W368A = molecular target: B2; experiment: ITC
SEC = molecular target: the molecule itself; experiment: SEC

binding result (PPM1A)	Kd [1]	dH [1] [kcal/mol]	Kd (S2LMH2EEE Y366A-W368A)	dH (S2LMH2EEE Y366A-W368A)	Binder	binding result (SEC)
binds	1.25 µM and 1.3 µM	-8.4	37.9 µM and 33.9 µM	-1.6 kcal/mol and -1.4 kcal/mol	B1	
					B2	binds
